This note sets out measurements from patent US7537762B2, “Human monoclonal antibodies to activin receptor-like kinase-1” (Amgen Fremont, Inc., priority 2005, dated 2009).

Test [1] has as its target T1, recombinant human ALK-1/Fc fusion protein (hALK-1/Fc) (Homo sapiens, UniProt P37023).
T1 construct: purchased R&D Systems, Inc. 370-AL; host or cells: mouse myeloma cell line
The test can be described thus: Avidity by surface plasmon resonance (BIACORE), immobilized hALK-1/Fc. The format is binding. As to conditions: SPR, dissociation monitored 10 minutes. (In general: In SPR one partner is held on a chip, and binding of the other changes the refractive index at the surface.)
Experimental: Avidity measures of purified anti-ALK-1 antibodies by surface plasmon resonance using the BIACORE® 3000 instrument were performed as follows using the manufacturer's protocols.
To perform kinetic analyses, recombinant human ALK-1/Fc fusion protein (hALK-1/Fc) and cynomologus ALK-1/Fc fusion protein (cALK-1/Fc) were immobilized on separate flow cells of a CM5 BIAcore sensor chip using routine amine coupling. […] Deactivation of unreacted N-hydroxysuccinimide esters was performed using 1 M ethanolamine hydrochloride, pH 8.5. Antibody samples in running buffer were prepared at concentrations ranging from 0.125 to 2 nM (a 0 nM solution comprising running buffer alone was included as a zero reference). Samples were randomized and injected in duplicate for 10 minutes each across all 4 flow cells using HBS-EP (10 mM HEPES pH 7.4, 150 mM NaCl, 3 mM EDTA, 0.005% Surfactant P20) as running buffer. […] A flow rate of 25 μL/min was used to determine avidity values. The dissociation of the antibody was monitored for 10 minutes, the surface regenerated by a 12 second injection of 100 mM H3PO4 (25 μL/min). The raw data were processed using the Scrubber (©BioLogic Software) software package and analyzed using the CLAMP (©BioLogic Software) software package. […]

The next test has as its target T2, monomeric ALK-ECD (Homo sapiens, UniProt P37023).
T2 construct: made in house; host or cells: 293T cells, transient, secreted (pSecTag2/Hygro)
The test can be described thus: Affinity constants of representative mAbs by SPR (BIACORE), Example 8. The format is binding. The following applies: mAb immobilized (200-400 RU), monomeric ALK-ECD 3.125-400 nM, different ECD preparation than Example 7.

The test system of test [2] is human vessels (human CD-31). Put plainly: Collagen model in human foreskin-SCID chimera mice, human CD-31 staining. The format is in vivo, human foreskin-SCID chimera mouse. The following applies: 3.0 mg/ml Collagen, no HMVEC, 100 μg/ml id. injection.
Text: Upon arrival from National Disease Research Institute and Cooperative Human Tissue Network, human foreskin pieces were trimmed of unhealthy regions and transferred to RPMI media (CELLGRO®/Mediatech, Cat# MT-15-040-CV supplemented with Penicillin and Streptamycin (GIBCO®/Life Tech, Cat# 15070-063) (add 5 mLs of the pen/strep stock solution into 500 mLs of RPMI). Using a scalpel and cutting in sterile petri dish, the skins were trimmed to an oval shape of approximately 8×13 mm cleaning any ragged ends and connective tissues, and stored on wet ice prior to surgery. The appropriate volume (4 μL/gram of animal) of 100 mg/mL (KeTASET®(ketamine), Fort Dodge Animal Health)/1 mg/mL medetomidine (Pfizer Animal Health-DORMITOR®(medetomidine)) solution was intraperitoneally injected into scid mouse abdomen (i.e., at a 45° angle, under skin but not too deep internally). Once anesthetized, the mice were applied with eye lubricant, a subcutaneuosly injection of Ketoprofen (10 mg/kg, Fort Dodge Animal Health) and hair was shaved over the site of the surgery. […] Complete healing occurred between 21-28 days after which time skins were ready to be inoculated with tumor cells.
For test [3], the target named is T3, Recombinant human ALK-1/FC chimera (Homo sapiens, UniProt P37023).
T3 construct: purchased R&D Systems, Inc. 370-AL; host or cells: mouse myeloma cell line
Put plainly: BIACORE cross-competition / epitope binning. It is filed as binding. As to conditions: panel of 14 antibodies, 50 nM, primary/secondary injections. Here is the method:
Cross-competition experiments were performed using the BIACORE® 3000 instrument (Biacore International AB, Uppsala, Sweden and Piscataway, N.J.), following the manufacturer's protocols.
Recombinant human ALK-1/FC chimera was immobilized onto the dextran layer of a CM5 biosensor chip using amine coupling. Chips were prepared using 10 mM acetate buffer pH 5.0 as the immobilization buffer and a protein density of 940 RU was achieved. Deactivation of unreacted N-hydroxysuccinimide esters was performed using 1 M ethanolamine hydrochloride, pH 8.5.
Purified mAbs were diluted to a concentration of 50 nM in HBS-EP running buffer (0.01 M HEPES pH 7.4, 0.15 M NaCl, 3 mM EDTA, 0.005% Polysorbate 20). A primary antibody was chosen and then injected across the flow cell for 600 seconds at a rate of 10 μL/min. After the injection was complete, a secondary antibody was chosen and injected across the same flow cell for 600 seconds at a rate of 10 μL/min. The sensor surface was regenerated by a 12 second injection of 100 mM H3PO4 (25 μL/min).
After regeneration, the primary antibody was again injected across the flow cell for 600 seconds at a rate of 10 μL/min. […] Threshold values were determined by using the same antibody as both the primary antibody and secondary antibody. […]

Experimental for monomeric ALK-ECD: Affinity measures (KD and koff) of purified anti-ALK-1 antibodies by surface plasmon resonance using the BIACORE® 3000 instrument were performed as follows using the manufacturer's protocols.
To perform kinetic analyses, affinity-purified mAbs were immobilized onto the dextran layer of a CM5 biosensor chip using amine coupling. Surfaces were prepared using 10 mM acetate buffer pH 5.0 as the immobilization buffer and protein densities of 200-400 RU were achieved. Deactivation of unreacted N-hydroxysuccinimide esters was performed using 1 M ethanolamine hydrochloride, pH 8.5. Samples of monomeric ALK-ECD in running buffer were prepared at concentrations ranging from 3.125-400 nM (a 0 nM solution comprising running buffer alone was included as a zero reference). Samples were randomized and injected in duplicate for 2 minutes each across all 4 flow cells using HBS-EP (10 mM HEPES pH 7.4, 150 mM NaCl, 3 mM EDTA, 0.005% Surfactant P20) as running buffer. […] Dissociation of monomeric ALK-ECD was monitored for 10 minutes, the surface regenerated by a 12 second injection of 100 mM H3PO4 (25 μL/min). The raw data were processed using the Scrubber (©BioLogic Software) software package and analyzed using the CLAMP (©BioLogic Software) software package. The data were fit globally to a simple 1:1 Langmuir binding model.

B1: 1.162.1: human anti-ALK-1 monoclonal antibody; VH SEQ ID NO: 26, VL SEQ ID NO: 28 (antibody, V domains shown)
VH: QVQLQESGPGLVKPSQTLSLICTVSGGSISSGEYYWSWIRQHPGKGLEWIGYIYYSGSTYYNPSLKSRLTISVDTSKNQFSLKLSSVTAADTAVYYCAREGIGAFDIWGQGTMVTVSS
VL: EIVLTQSPGTLSLSPGERATLSCRASQSVSSSYLAWYQQKPGQAPRLLIYGASSRATGIPDRFSGSGSGTDFTLTIIRLDPEDFAVYYCQRYGSSPITFGQGTRLEIK
modifications: Human
Take B1: the hALK-1/Fc koff in test [1] stood at 1.1e-05 s⁻¹.

B2: 4.72.1: human anti-ALK-1 monoclonal antibody; VH SEQ ID NO: 66, VL SEQ ID NO: 68 (antibody, V domains shown)
VH: QVQLQESGPGLVKPSQTLSLTCTVSGGSISSGEYYWSWIRQHPGKGLEWIGYIFYSGSTYYNPSLKSRVTISLDTSKNQFSLKLSSVTAADTAVYYCARESTDGMDVWGQGTTVTVSS
VL: EIVLTQSPGTLSLSPGERATLSCRASQSVSSSYLAWYQRKPGQAPRLLIYGVSSRATGIPDRFSGSGSGTDFTLTISRLEPEDFAVYYCQQYGSSMITFGQGTRLEIK
modifications: Human
In the test with monomeric ALK-ECD, B2 had an off-rate of 2.5e-05 s⁻¹ and an on-rate of 32000 M⁻¹ s⁻¹.

B3: 1.14.1: human anti-ALK-1 monoclonal antibody; VH SEQ ID NO: 18, VL SEQ ID NO: 20 (antibody, V domains shown)
VH: QVQLQESGPGLVKPSETLSLTCTVSGGSVSSGDYYWNWIRQPPGKGLEWIGYIYYSGSTNYNPSLKSRVTISVDTSKNQFSLKLSSVTAADTAVYYCAREAVSAFDYWGQGTLVTVSS
VL: EIVLTQSPGTLSLSPGERATLSCRASQSVSSTYLAWHQQKPGQAPRLLIYGVSSRASGVPDRFSGSGSGTDFTLTISRLEPEDFAVYYCQQYGSSPITFGQGTRLEIK
modifications: Human
For B3, in test [2] (4 days of Rx), the Human vessel scoring was 44 ± 28 1 × 10^3. The “% of Control (human vessels)” value in test [2] (4 days, control = isotype control antibody) stood at 59%.

B4: 1.11.1: human anti-ALK-1 monoclonal antibody; VH SEQ ID NO: 10, VL SEQ ID NO: 12 (antibody, V domains shown)
VH: QVQLVESGGGVVQPGRSLRLSCAASGFTFSSHGMYWVRQAPGKGLEWVAAIWYDGSNKYYADSVKGRFTISRDNSKNTLYLQMNSLRAEDTAVYYCARDQEQWPDVFDIWGQGTMVTVSS
VL: DIQMTQSPSSLSASVGDRVTITCRASQGIRNYLAWFQQKPGKAPKSLIYGASSLQSGVPSKFSGSGSGTDFTLTISSLQPEDFATYYCQQYNSYPLTFGGGTKVEIK
modifications: Human
As for B4, the epitope bin entry in test [3] is recorded as “in one bin”.
